Experimental data reported in article PMC3348139.
Values belong to the substance of their own block, whether it stands above or below them.

What was measured:
[1] = biological target: Y166C human cardiac actin (Y166C ACTC) (human); test: pyrene-actin polymerisation assay (critical concentration); actin in G-buffer mixed with 2.5% pyrene-labeled alpha-skeletal actin; polymerization buffer 25 mM Tris pH 8.0, 50 mM KCl, 1 mM EGTA, 2 mM MgCl2, 0.1 mM ATP; Cc is the x-intercept of the change in pyrene fluorescence against actin concentration; monomer to filament
[2] = biological target: DNase-I (UniProt P00639)
DNase-I, sequence (P00639 23-282): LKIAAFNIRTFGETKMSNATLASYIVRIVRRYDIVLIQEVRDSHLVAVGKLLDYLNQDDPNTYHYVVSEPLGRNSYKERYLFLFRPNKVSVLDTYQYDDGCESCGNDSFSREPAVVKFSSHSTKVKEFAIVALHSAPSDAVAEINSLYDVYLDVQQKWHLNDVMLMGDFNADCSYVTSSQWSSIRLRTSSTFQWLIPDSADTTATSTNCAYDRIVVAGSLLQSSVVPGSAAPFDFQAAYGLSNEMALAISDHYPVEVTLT

[3] = biological target: A230V human cardiac actin (A230V ACTC) (human); test: pyrene-actin polymerisation assay (critical concentration); actin in G-buffer mixed with 2.5% pyrene-labeled alpha-skeletal actin; polymerization buffer 25 mM Tris pH 8.0, 50 mM KCl, 1 mM EGTA, 2 mM MgCl2, 0.1 mM ATP; Cc is the x-intercept of the change in pyrene fluorescence against actin concentration; monomer to filament
[4] = biological target: E361G human cardiac actin (E361G ACTC) (human); test: as above
[5] = biological target: wildtype human cardiac actin (WT ACTC) (human) (UniProt P68032); test: as above
[6] = biological target: E99K human cardiac actin (E99K ACTC) (human); test: as above
[7] = biological target: A331P human cardiac actin (A331P ACTC) (human); test: as above
[8] = biological target: M305L human cardiac actin (M305L ACTC) (human); test: as above
[9] = biological target: R312H human cardiac actin (R312H ACTC) (human); test: as above

Substance: Y166C human cardiac actin (Y166C ACTC) (natural protein)
- Cc (critical concentration of polymerisation) [1]: 2.67 µM
- IC50 of inhibition of DNase-I activity (A260 with salmon sperm DNA; 0 to 100 nM ACTC, 15.4 nM DNase-I) [2]: 24.6 nM

Substance: E361G human cardiac actin (E361G ACTC) (natural protein)
- Cc (critical concentration of polymerisation) [4]: 0.58 µM
- IC50 of inhibition of DNase-I activity (A260 with salmon sperm DNA; 0 to 100 nM ACTC, 15.4 nM DNase-I) [2]: 16.8 nM

Substance: E99K human cardiac actin (E99K ACTC) (natural protein)
- Cc (critical concentration of polymerisation) [6]: 1.67 µM
- IC50 of inhibition of DNase-I activity (A260 with salmon sperm DNA; 0 to 100 nM ACTC, 15.4 nM DNase-I) [2]: 25.7 nM

Substance: A331P human cardiac actin (A331P ACTC) (natural protein)
- Cc (critical concentration of polymerisation) [7]: 2.95 µM
- IC50 of inhibition of DNase-I activity (A260 with salmon sperm DNA; 0 to 100 nM ACTC, 15.4 nM DNase-I) [2]: 26 nM

Substance: R312H human cardiac actin (R312H ACTC) (natural protein)
- Cc (critical concentration of polymerisation) [9]: 4.75 µM
- IC50 of inhibition of DNase-I activity (A260 with salmon sperm DNA; 0 to 100 nM ACTC, 15.4 nM DNase-I); the value rose on later days after purification [2]: 36.7 nM

The remaining lines, values ahead:

- Cc (critical concentration of polymerisation) [3]: 2.11 µM
- IC50 of inhibition of DNase-I activity (A260 with salmon sperm DNA; 0 to 100 nM ACTC, 15.4 nM DNase-I) [2]: 15.3 nM
Substance: A230V human cardiac actin (A230V ACTC) (natural protein)

- Cc (critical concentration of polymerisation) [5]: 0.28 µM
- IC50 of inhibition of DNase-I activity (A260 with salmon sperm DNA; 0 to 100 nM ACTC, 15.4 nM DNase-I) [2]: 13.2 nM
Substance: wildtype human cardiac actin (WT ACTC) (from UniProt P68032 1-377) (natural protein)

- Cc (critical concentration of polymerisation) [8]: 2.21 µM
- IC50 of inhibition of DNase-I activity (A260 with salmon sperm DNA; 0 to 100 nM ACTC, 15.4 nM DNase-I) [2]: 17 nM
Substance: M305L human cardiac actin (M305L ACTC) (natural protein)
